Two sequences from publication PMC4187101 can be followed below.

The target in the series is DNA adenine-N6 methyltransferase M.TaqI (Thermus aquaticus) (UniProt P14385). As to the kind of experiment: competition, 2-aminopurine fluorescence titration. The settings on record: 20 mM TrisOAc pH 7.9, 10 mM Mg(OAc)2, 50 mM KOAc, 0.01% reduced Triton X-100, with 1 mM DTT (unlocked) or no reducing agent (locked), 400 nM duplex vs 200 nM ….
Chain of DNA adenine-N6 methyltransferase M.TaqI (Thermus aquaticus) (P14385 whole entry): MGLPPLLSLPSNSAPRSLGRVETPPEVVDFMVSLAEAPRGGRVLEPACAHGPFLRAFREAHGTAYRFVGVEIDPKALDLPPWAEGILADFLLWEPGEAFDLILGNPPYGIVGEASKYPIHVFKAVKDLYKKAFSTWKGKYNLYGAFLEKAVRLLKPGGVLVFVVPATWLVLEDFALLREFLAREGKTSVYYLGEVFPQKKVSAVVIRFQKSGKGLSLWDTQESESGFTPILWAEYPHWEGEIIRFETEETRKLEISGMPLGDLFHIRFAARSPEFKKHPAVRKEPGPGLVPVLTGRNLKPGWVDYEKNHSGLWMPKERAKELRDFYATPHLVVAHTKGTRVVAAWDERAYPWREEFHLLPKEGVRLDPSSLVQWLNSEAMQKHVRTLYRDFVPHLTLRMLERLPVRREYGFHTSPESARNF

Broadly, the Kd is a measure of binding affinity in units of concentration. Lower therefore signals a tighter complex. Sequence “GCCGCTCGNTGCCG / CGGCAUCGAGCGGC [1I6S-Et-S4U2 (locked, cross-linked A/T analog)]” returned an equilibrium dissociation constant (Kd) (strand 1 position 9 (N) = 6-thio-2'-deoxyinosine, S-ethylene-S interstrand cross-linked to 4-thio-2'-deoxyuridine at strand 2 U6, strand 2 A9 = N6-methyl-dA) of 6 nM. “GCCGCTCGNTGCCG / CGGCAUCGAGCGGC [1I6S·2U4S (unlocked A/T analog)]” returned a dissociation constant (Kd) (strand 1 position 9 (N) = 6-thio-2'-deoxyinosine (I6S), strand 2 U6 = 4-thio-2'-deoxyuridine (U4S), A9 = N6-methyl-dA, all other residues DNA) of 1 nM.
